Laboratory results published in IntAct's records for PubMed 16834335.

B1: Modulator of FtsH protease HflC (Escherichia coli (strain K12)), P0ABC3 (parent)
chain: MRKSVIAIIIIVLVVLYMSVFVVKEGERGITLRFGKVLRDDDNKPLVYEPGLHFKIPFIETVKMLDARIQTMDNQADRFVTKEKKDLIVDSYIKWRISDFSRYYLATGGGDISQAEVLLKRKFSDRLRSEIGRLDVKDIVTDSRGRLTLEVRDALNSGSAGTEDEVTTPAADNAIAEAAERVTAETKGKVPVINPNSMAALGIEVVDVRIKQINLPTEVSEAIYNRMRAEREAVARRHRSQGQEEAEKLRATADYEVTRTLAEAERQGRIMRGEGDAEAAKLFADAFSKDPDFYAFIRSLRAYENSFSGNQDVMVMSPDSDFFRYMKTPTSATR
partner: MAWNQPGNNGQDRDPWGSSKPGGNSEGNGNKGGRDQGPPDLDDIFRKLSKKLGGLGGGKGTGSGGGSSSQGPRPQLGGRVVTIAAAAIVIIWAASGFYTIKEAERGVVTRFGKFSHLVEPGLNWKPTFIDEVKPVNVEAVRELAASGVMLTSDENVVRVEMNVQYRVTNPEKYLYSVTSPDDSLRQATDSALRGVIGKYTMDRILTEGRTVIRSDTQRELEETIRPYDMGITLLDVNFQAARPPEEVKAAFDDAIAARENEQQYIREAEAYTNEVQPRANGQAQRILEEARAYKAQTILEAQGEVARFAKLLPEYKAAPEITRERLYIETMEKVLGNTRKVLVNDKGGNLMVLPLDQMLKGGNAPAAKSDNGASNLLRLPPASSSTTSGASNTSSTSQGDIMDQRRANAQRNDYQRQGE

Variants of: B1
Conditions: with hflk_ecoli hflK

Row | effect of a mutation on the interaction | Variant
1 | decreasing interaction strength | MRKSVIAIIIIVLVVLYMSVFVVKEGERGITLRFGKVLRDDDNKPLVYEPGLHFKIPFIETVKMLDARIQTMDNQADRFVTKEKKDLIVDSYIKWRISDFSRYYLATGGGDISQAEVLLKRKFSDRLRSEIGRLDVKDIVTDSRGRLTLEVRDALNSGSAGTEDEVTTPAADNAIAEAAERVTAETKGKVPVINPNSMAALGIEVVDVRIKQINLPTEVSEAIYNRMRAEREAVARRHRSQGQEEAEKLRATADYEVTRTLAEAERQGRIMRGEGDAEAAKLFADIFSKDPDFYAFIRSLRAYENSFSGNQDVMVMSPDSDFFRYMKTPTSATR [A286I]
